{"source": "patent US20230272055A1", "about": "(Incyte, published 2023)", "binders": {"B1": {"name": "anti-mutCALR antibody clone 41 (antibody, human IgG1, lambda, V domains shown)", "VH": "EVQLVQSGAEVKKPGASVKVSCKVSGYTLTELSMHWVRQAPGKGLEWMGLVDPEDGETIYAQKFQGRVTMTEDTSTDTAYMELSSLRSEDTAVYYCAREEWSGDGDDAFDIWGQGTMVTVSS", "VL": "QSVLTQPPSVSAAPGQKVTISCSGSSSNIGSYSVSWYQQLPGTAPKLLIYDNNKRPSGIPDRFSGSNSGTSATLGITGLQTGDEADYYCGTWDSSLSAWVFGGGTKLTVLG", "notes": "human IgG1"}, "B2": {"name": "anti-mutCALR antibody clone 42 (antibody, human IgG1, lambda, V domains shown)", "VH": "B1 VH", "VL": "B1 VL with N52D, G75S", "notes": "human IgG1"}, "B3": {"name": "anti-mutCALR antibody clone 7 (antibody, human IgG1, lambda, V domains shown)", "VH": "EVQLVQSGAEVKKPGASVKVSCKVSGYTLTELSMQWVRQAPGKGLEWMGGFDPDDGETMYAEKFQGRLTVTEDTSTDTVYMELRSLTSEDTALYFCATSPGYDFFDYWGQGTLVTVSS", "VL": "SYVLTQPPSVSVAPGQTASITCVGTNFGSKNVHWYQQRPGQAPVLVVYDDSDRPSGIPERFSGSNSGNTATLTINRVEAGDEADYYCQVWDSSNDLLIFGGGTKLTVLG", "notes": "human IgG1"}, "B4": {"name": "anti-mutCALR antibody clone 4 (antibody, human IgG1, lambda, V domains shown)", "VH": "B3 VH", "VL": "B3 VL with S19R, V23G, T25N, F27I, N31S, R38K", "notes": "human IgG1"}, "B5": {"name": "anti-mutCALR antibody clone 8 (antibody, human IgG1, lambda, V domains shown)", "VH": "B3 VH with E1Q, A16S", "VL": "SYELTQPPSVSVAPGQTARITCGGNNIGSKSVHWYQQKPGQAPVLVVYDDSDRPSGIPERFSGSNSGRTATLTISRVEAGDEADYHCQVWDSSSDHLVFGGGTKLTVLG", "notes": "human IgG1"}, "B6": {"name": "anti-mutCALR antibody clone 5 (antibody, human IgG1, lambda, V domains shown)", "VH": "B3 VH", "VL": "B3 VL with N75S, N94S, L96H", "notes": "human IgG1"}, "B7": {"name": "anti-mutCALR antibody clone 2 (antibody, human IgG1, lambda, V domains shown)", "VH": "B3 VH", "VL": "B5 VL with Q16K, N25D, R68N, H86Y, S94I, V98I, L105V", "notes": "human IgG1"}, "B8": {"name": "anti-mutCALR antibody clone 9 (antibody, human IgG1, lambda, V domains shown)", "VH": "B3 VH", "VL": "B3 VL with S19R, T21P, V23G, T25N, F27I, N31S, R38K, S51R", "notes": "human IgG1"}, "B9": {"name": "anti-mutCALR antibody clone 1 (antibody, human IgG1, lambda, V domains shown)", "VH": "B3 VH", "VL": "B5 VL with E3V, Q16K, N26Y, S51G, E59A, R68N, H86Y, S93I, L97V", "notes": "human IgG1"}, "B10": {"name": "anti-mutCALR antibody clone 3 (antibody, human IgG1, lambda, V domains shown)", "VH": "B3 VH with K63R", "VL": "B3 VL with S19R, V23G, T25N, F27I, N31S, R38K", "notes": "human IgG1"}, "B11": {"name": "anti-mutCALR antibody clone 56 (antibody, human IgG1, lambda, N297A, V domains shown)", "VH": "B3 VH with D55A", "VL": "QSALTQPASVSGSPGQSITISCTGTSSDVGGYNYVSWYQQHPGKAPKLMIYEVSNRPSGVSNRFSGSNSGNTATLTINRVEAGDEADYYCQVWDSSNDLLIFGGGTKLTVLG"}, "B12": {"name": "anti-mutCALR antibody clone 177 (antibody, human IgG1, lambda, N297A, V domains shown)", "VH": "B3 VH with D55S, R84S, T87R, L93V", "VL": "SYVLTQPPSVSVAPGQTARITCGGSDIGDEIVHWYQQKPGQAPVLVVYDDSDRPSGIPERFSGSNSGNTATLTISRAQAGDEADYYCQVWDSSSDHLIFGGGTKLTVLG"}, "B13": {"name": "anti-mutCALR antibody clone 179 (antibody, human IgG1, lambda, N297A, V domains shown)", "VH": "B3 VH with G56A, R84S, T87R, L93V", "VL": "B12 VL"}, "B14": {"name": "anti-mutCALR antibody clone 70 (antibody, human IgG1, lambda, N297A, V domains shown)", "VH": "B3 VH with R84S, T87R, L93V", "VL": "SYVLTQPPSVSVAPGKTARITCTGTSSDVGGYNYVSWYQQKPGQAPVLVVYEVSNRPSGIPERFSGSNSGNTATLTISRVEAGDEADYYCQVWDSSNDLLIFGGGTKLTVLG"}, "B15": {"name": "anti-mutCALR antibody clone 178 (antibody, human IgG1, lambda, N297A, V domains shown)", "VH": "B3 VH with D55E, R84S, T87R, L93V", "VL": "B12 VL"}, "B16": {"name": "anti-mutCALR antibody clone 176 (antibody, human IgG1, lambda, N297A, V domains shown)", "VH": "B3 VH with D55A, R84S, T87R, L93V", "VL": "B12 VL"}, "B17": {"name": "anti-mutCALR antibody clone 71 (antibody, human IgG1, lambda, N297A, V domains shown)", "VH": "B3 VH with D55A, R84S, T87R, L93V", "VL": "B14 VL"}, "B18": {"name": "anti-mutCALR antibody clone 61 (antibody, human IgG1, lambda, N297A, V domains shown)", "VH": "B3 VH with D55A, R84S, T87R, L93V", "VL": "B11 VL"}, "B19": {"name": "anti-mutCALR antibody clone 59 (antibody, human IgG1, lambda, N297A, V domains shown)", "VH": "B3 VH with G56A", "VL": "B11 VL"}, "B20": {"name": "anti-mutCALR antibody clone 72 (antibody, human IgG1, lambda, N297A, V domains shown)", "VH": "B3 VH with D55S, R84S, T87R, L93V", "VL": "B14 VL"}, "B21": {"name": "anti-mutCALR antibody clone 58 (antibody, human IgG1, lambda, N297A, V domains shown)", "VH": "B3 VH with D55E", "VL": "B11 VL"}, "B22": {"name": "anti-mutCALR antibody clone 74 (antibody, human IgG1, lambda, N297A, V domains shown)", "VH": "B3 VH with G56A, R84S, T87R, L93V", "VL": "B14 VL"}, "B23": {"name": "anti-mutCALR antibody clone 69 (antibody, human IgG1, lambda, N297A, V domains shown)", "VH": "B3 VH with G56A", "VL": "B14 VL"}, "B24": {"name": "anti-mutCALR antibody clone 63 (antibody, human IgG1, lambda, N297A, V domains shown)", "VH": "B3 VH with D55E, R84S, T87R, L93V", "VL": "B11 VL"}, "B25": {"name": "anti-mutCALR antibody clone 68 (antibody, human IgG1, lambda, N297A, V domains shown)", "VH": "B3 VH with D55E", "VL": "B14 VL"}, "B26": {"name": "anti-mutCALR antibody clone 62 (antibody, human IgG1, lambda, N297A, V domains shown)", "VH": "B3 VH with D55S, R84S, T87R, L93V", "VL": "B11 VL"}, "B27": {"name": "anti-mutCALR antibody clone 67 (antibody, human IgG1, lambda, N297A, V domains shown)", "VH": "B3 VH with D55S", "VL": "B14 VL"}, "B28": {"name": "anti-mutCALR antibody clone 73 (antibody, human IgG1, lambda, N297A, V domains shown)", "VH": "B3 VH with D55E, R84S, T87R, L93V", "VL": "B14 VL"}, "B29": {"name": "anti-mutCALR antibody clone 64 (antibody, human IgG1, lambda, N297A, V domains shown)", "VH": "B3 VH with G56A, R84S, T87R, L93V", "VL": "B11 VL"}, "B30": {"name": "anti-mutCALR antibody clone 65 (antibody, human IgG1, lambda, N297A, V domains shown)", "VH": "B3 VH", "VL": "B14 VL"}, "B31": {"name": "anti-mutCALR antibody clone 66 (antibody, human IgG1, lambda, N297A, V domains shown)", "VH": "B3 VH with D55A", "VL": "B14 VL"}}, "note": "Numbering of substitutions follows the chain as printed."}
{"biological_target": "T1, Recombinant MBP-mutCALR Type 1 fusion protein (human)", "T1 construct": "custom made at Cepter; also called recombinant mutCALR protein", "test": "SPR, IgG captured, 1:1 fit, Exp. 1", "protocol": "Experiment 1: Recombinant MBP-mutCALR Type 1 fusion protein was custom made at Cepter (cepterbiopartners.com). Data for the interaction of antibodies with recombinant MBP-mutCALR Type 1 fusion protein were collected at 25° C. on a Biacore 8K instrument (Cytiva, Marlborough, Mass.), and all reagents were obtained from Cytiva unless otherwise specified. The experiments were conducted using Tris-buffered saline (pH 7.2), 0.005% Surfactant P20, 1 mM CaCl₂) as running buffer. To prepare the capture surfaces, anti-human IgG (Fc) antibodies (Product #29234600) was amine-coupled onto a CM4 chip (Product #BR100534) under standard conditions using an Amine Coupling Kit (Product #BR100050). […] The kinetics parameters were obtained by applying 1:1 binding model to fit the data from multiple-cycle injection experiments using Biacore Insight Evaluation software.", "units": {"Kd": "nM", "koff": "s⁻¹", "kon": "M⁻¹ s⁻¹"}}
{"binder": "B1", "Kd": 4.88, "koff": 0.00811, "kon": "1.66e+06"}
{"binder": "B2", "Kd": 6.97, "koff": 0.00452, "kon": 649000}
{"binder": "B3", "Kd": 3.83, "koff": 0.00609, "kon": "1.59e+06"}
{"binder": "B4", "Kd": 4.33, "koff": 0.00704, "kon": "1.63e+06"}
{"binder": "B5", "Kd": 4.58, "koff": 0.00802, "kon": "1.75e+06"}
{"binder": "B6", "Kd": 4.33, "koff": 0.00405, "kon": 935000}
{"binder": "B7", "Kd": 7.58, "koff": 0.0123, "kon": "1.63e+06"}
{"binder": "B8", "Kd": 2.99, "koff": 0.00904, "kon": "3.02e+06"}
{"binder": "B9", "Kd": 14.2, "koff": 0.0196, "kon": "1.38e+06"}
{"binder": "B10", "Kd": 3.45, "koff": 0.00716, "kon": "2.08e+06"}
{"biological_target": "T2, human mutCALR on BaF3 cells stably expressing human MPL and human mutCALR (MPL-mutCALR cells) (human)", "T2 construct": "also called mutant calreticulin", "T2 chain": "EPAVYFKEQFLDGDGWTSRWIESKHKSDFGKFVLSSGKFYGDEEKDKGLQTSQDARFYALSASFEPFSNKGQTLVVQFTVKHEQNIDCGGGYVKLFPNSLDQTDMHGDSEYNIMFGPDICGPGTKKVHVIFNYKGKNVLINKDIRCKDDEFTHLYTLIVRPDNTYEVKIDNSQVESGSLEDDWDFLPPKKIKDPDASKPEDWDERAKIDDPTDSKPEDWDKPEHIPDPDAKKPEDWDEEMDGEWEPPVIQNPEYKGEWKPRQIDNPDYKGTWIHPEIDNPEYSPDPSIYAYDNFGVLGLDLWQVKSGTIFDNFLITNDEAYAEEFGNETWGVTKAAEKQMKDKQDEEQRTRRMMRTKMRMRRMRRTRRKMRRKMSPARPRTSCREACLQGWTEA", "test": "flow cytometry, BaF3 MPL-mutCALR cells", "protocol": "On the day of the assay, cells were washed and resuspended in assay buffer. Approximately 200,000 cells/well were added to 96-well plates and stained with the indicated concentration of antibodies for 30 minutes on ice. Cells were then washed and stained with goat anti-human secondary conjugated to R-phycoerythrin (R-PE) (Jackson Immuno Research Laboratories) for 30 minutes on ice. The cells were then washed and analyzed by flow cytometry.", "units": {"EC50": "ng/mL"}}
{"binder": "B11", "EC50": 6.9, "MPL-mutCALR AUC": 64400}
{"binder": "B12", "EC50": 3.4, "MPL-mutCALR AUC": 52900}
{"binder": "B13", "EC50": 5.8, "MPL-mutCALR AUC": 60200}
{"binder": "B14", "EC50": 1.9, "MPL-mutCALR AUC": 84800}
{"binder": "B15", "EC50": 4.1, "MPL-mutCALR AUC": 63600}
{"binder": "B16", "EC50": 3.1, "MPL-mutCALR AUC": 48400}
{"binder": "B17", "EC50": 9.7, "MPL-mutCALR AUC": 55900}
{"binder": "B18", "EC50": 6.3, "MPL-mutCALR AUC": 62400}
{"binder": "B19", "EC50": 7.7, "MPL-mutCALR AUC": 75700}
{"binder": "B20", "EC50": 3.3, "MPL-mutCALR AUC": 58000}
{"binder": "B21", "EC50": 8.6, "MPL-mutCALR AUC": 69800}
{"binder": "B22", "EC50": 2.2, "MPL-mutCALR AUC": 81800}
{"binder": "B23", "EC50": 2.1, "MPL-mutCALR AUC": 71800}
{"binder": "B24", "EC50": 5.5, "MPL-mutCALR AUC": 69100}
{"binder": "B25", "EC50": 3.3, "MPL-mutCALR AUC": 68700}
{"binder": "B26", "EC50": 5.4, "MPL-mutCALR AUC": 58800}
{"binder": "B27", "EC50": 8.1, "MPL-mutCALR AUC": 63900}
{"binder": "B28", "EC50": 2, "MPL-mutCALR AUC": 67600}
{"binder": "B29", "EC50": 7.2, "MPL-mutCALR AUC": 73200}
{"binder": "B30", "EC50": 5.9, "MPL-mutCALR AUC": 81200}
{"binder": "B31", "EC50": 5.8, "MPL-mutCALR AUC": 65000}
